# Legend:
# [1] = Shaking test of peptide hormone solutions at 37° C., Example 5; details: for appearance after a few days of shaking: 0.1% solution in 0.05M Tris/HCl buffer pH 7.5, shaken at 37° C., without stabilizer; for appearance of stabilized samples: 0.1% solution in 0.05M Tris/HCl pH 7.5, shaken at 37° C., with 10 ppm block polymer (PPG MW 2,000, 5% PEG each side)
# [2] = Adsorption of proteins on polystyrene beads at 5° C., protein concentration in filtrate, Example 3; assay type: physicochemical; details: for protein concentration in solution, A: A = 3 ml of protein solution + 450 μl of buffer (no polystyrene), phosphate buffer pH 7; for protein concentration in solution (filtrate), B: B = after contact with treated polystyrene surfaces (block polymer PPG MW 2,250, 5% PEG each side; 20 ppm present); for protein concentration in solution (filtrate), B / protein concentration in solution (filtrate), C: shaken at 5° C., 0.2 μm filtered; for protein concentration in solution (filtrate), C: C = after contact with untreated polystyrene surfaces
# Description: 10 ml of an aqueous suspension of polystyrene beads (Dow-Latex®) having an average diameter of 0.481 μm were divided in two aliquots, one of which remained untreated while the other was shaken for 2 days at room temperature with 50 mg of a block polymer consisting of a linear polypropylene glycol chain with an average molecular weight of 2,250 (Dalton) on each side of which 5% of polyethylene glycol had been added by polymerization. The excess block polymer was then removed by dialysis against an aqueous solution containing 20 ppm of the same polymeric, surface-active substance.
# Two times 3 ml portions of a solution of the proteins indicated in the following table in the given concentrations in phosphate buffer, pH 7, were prepared and each solution was shaken at 5° C. with 500 μl each of the untreated polystyrene suspension or the polystyrene suspension treated as described above, the latter still containing 20 ppm of the block polymer. Each sample was then filtered to clarity through a 0.2 μm filter.
# A=3 ml of the respective protein solution+450 μl of buffer
# B=after contact with treated polystyrene surfaces
# C=after contact with untreated polystyrene surfaces.
# [3] = Shaking test of albumin solutions at 37° C. (turbidity from denatured protein), Example 1b; assay type: physicochemical; details: 0.1% solution in 0.01M phosphate buffer pH 7, shaken at 37° C.
# [4] = Adsorption of β-galactosidase on silicone oil emulsion, enzyme activity in aqueous phase, Example 2; assay type: physicochemical
# Description: Ten samples of 10 ml each of a 0.01% solution of the enzyme β-galactosidase from E. coli in 0.01M phosphate buffer, pH 7, with 3×10^6 μU/ml were admixed stepwise with 10 to 100 mg of silicone oil AK 350 and the suspensions were shaken for 48 hours at 5° C. Emulsions were formed which could be separated into two phases by ultracentrifugation (40,000 g, 30 minutes, 4° C.). The enzyme activity in the aqueous phase was determined.
# [5] = Shaking test of protein solutions at 37° C. with analytical ultracentrifuge check, Example 6; assay type: physicochemical
# Description: 0.1% solutions of egg albumin, human immunoglobulin-G and myoglobin of the whale, respectively, in 0.01M phosphate buffer, pH 7, and analogous solutions containing 0.1%, calculated on the weight of the solution, of the following compound [drawing 4] in which n and m are chosen to obtain a compound having an average total molecular weight of 12,500 Daltons with an ethylene oxide proportion of 40%, were freed from aggregates by ultracentifugation (for example 100,000 g/90 minutes). Ampules containing 10 ml each of the solutions were shaken at 37° C.
Molecule,appearance after a few days of shaking [1],"protein concentration in solution, A [2] [mg/mL]","protein concentration in solution (filtrate), B [2] [mg/mL]","protein concentration in solution (filtrate), C [2] [mg/mL]",other results
cholecystokinin,had become turbid,–,–,–,appearance of stabilized samples [1]: remained clear even after several months
gastrin inhibiting polypeptide: peptide hormone,had become turbid,–,–,–,–
Lysozyme,–,1.0,0.95,0.25,–
"adrenocorticotropic hormone: peptide hormone (SYSMEHFRWGKPVGKKRRPVKVYPNGAEDESAEAFPLEF; Corticotropin; UniProt P01189 138-176, looked up)",had become turbid,–,–,–,appearance of stabilized samples [1]: remained clear even after several months
"bovine serum albumin: bovine serum albumin, 0.1% solution",–,–,–,–,"appearance of sample containing stabilizer ([3]; with 10 ppm block polymer (polypropylene glycol MW 1,750, 5% polyethylene glycol on each side)): still limpid after several month; time after which sample became strongly turbid (denatured protein) ([3]; without stabilizer): 7 days"
Insulin,–,1.0,1.0,0.2,–
secretin: peptide hormone,had become turbid,1.0,1.0,0.3,–
β-galactosidase: enzyme β-galactosidase from E. coli,–,–,–,–,"enzyme adsorbed by silicone oil emulsion ([4]; 0.01% solution, 0.01M phosphate buffer pH 7, 10 to 100 mg silicone oil AK 350, shaken 48 hours at 5° C., without stabilizer): up to 70%; enzyme activity adsorbed on silicone oil ([4]; same test in the presence of 100 ppm of compound drawing 2): no enzyme activity had been adsorbed"
gastrin,had become turbid,–,–,–,–
calcitonin,had become turbid,–,–,–,appearance of stabilized samples [1]: remained clear even after several months
"Egg-albumin: egg albumin (protein, UniProt P01012 2-386, looked up) Ovalbumin: GSIGAASMEFCFDVFKELKVHHANENIFYCPIAIMSALAMVYLGAKDSTRTQINKVVRFDKLPGFGDSIEAQCGTSVNVHSSLRDILNQITKPNDVYSFSLASRLYAEERYPILPEYLQCVKELYRGGLEPINFQTAADQARELINSWVESQTNGIIRNVLQPSSVDSQTAMVLVNAIVFKGLWEKAFKDEDTQAMPFRVTEQESKPVQMMYQIGLFRVASMASEKMKILELPFASGTMSMLVLLPDEVSGLEQLESIINFEKLTEWTSSNVMEERKIKVYLPRMKMEEKYNLTSVLMAMGITDVFSSSANLSGISSAESLKISQAVHAAHAEINEAGREVVGSAEAGVDAASVSEEFRADHPFLFCIKHIATNAVLFFGRCVSP",–,0.5,0.50,0.22,"appearance of samples without stabilizer ([5]; 0.1% solution in 0.01M phosphate buffer pH 7, freed from aggregates, shaken at 37° C., without stabilizer): became strongly turbid after a few hours; appearance of samples containing surface-active substance ([5]; 0.1% solution in 0.01M phosphate buffer pH 7, shaken at 37° C., with 0.1% of compound drawing 4 (MW 12,500, 40% ethylene oxide)): remained limpid for several months; new aggregates in analytical ultracentrifuge ([5]; samples with 0.1% of compound drawing 4 after shaking at 37° C.): no new aggregate could be found"

# Reference: patent publication US4783441A, “Aqueous protein solutions stable to denaturation” (Hoechst Aktiengesellschaft, priority 1979, dated 1988)
